Assay results as given in article PMC6597733, “Characterisation of a solvent-tolerant haloarchaeal (R)-selective transaminase isolated from a Triassic period salt mine” (Applied Microbiology and Biotechnology, 2019).

Substrate: O=C(O)CCC(=O)C(=O)O
Experiment: purified protein
Type: biochemical, Halorubrum sp. CSM-61
Settings: α-KG varied 1-20 mM, amino donor (R)-methylbenzylamine co-varied at 5 equivalents, 0.5 mM PLP, phosphate pH 8.0, 1 M KCl, 30% DMF, 45 °C per general assay, the varied substrate is named only in Method

B1: BC61-TAm (Halorubrum sp. CSM-61) (protein)
chain: MGFDEMDVDTIWKNGEFLDWEDATTHVLTHALHYGSGVFEGVRCYDTEQGPAVFRWDEHLDRLFDSAKMYDLDIEHSREEITEATMELLRRQDLESCYIRPIAYYGYDSLGVSPKECPTDLVVAAWPWGAYLGEEALEDGVDVMVSSWRKHASSQVPTNVKTTGLYVNSMLAGEEARRNGYVEAIVLNKEGNVAEGPGENVFMVNDGEIYTTGPAQSILEGITRDTVIELAEERGYTVHDEAVVSRGQLYTADELFFTGSAAEVTPIRSVDDTEIGAGTRGPVTEELQSAFFDLVERRTDAHDDWFTYV
notes: full-length gene (930 bp), N-terminal 6xHis tag (pTA1228), expressed in Haloferax volcanii H1424, IMAC purified, 34-35 kDa
Km: 3.37 mM | kcat: 0.042 s⁻¹
